From PMC11239668

Experiments:
[1] = target: filamentous actin (F-actin) polymerized from G-actin purified from rabbit skeletal muscle (rabbit) (UniProt P68135)
[2] = target: filamentous actin (F-actin) polymerized from G-actin purified from rabbit skeletal muscle (rabbit) (UniProt P68135); remark: listed apart in the source

Substance | percent activation of localisation to F-actin (0% inactive optoCAST, 100% ABM only) in live HeLa cells under blue light [1] [%] | percent activation of localisation to F-actin (0% inactive pepCAST, 100% ABM only) in live HeLa cells that co-express SZ21 [2] [%]
ABS optoCAST (ABS opto1: mCherry-AsLOV2(403-540)-ABS) (from UniProt O49003 403-540) (designed binder) | 80 | –
ABS pepCAST (ABS pep6: SZ3-linker-ABS-linker-SZ4-eGFP) (designed binder) | – | > 80
